Results on 32 molecules are retold here after publication PMC6555819, “Comprehensive study of nuclear receptor DNA binding provides a revised framework for understanding receptor specificity”.

The chains are these.
B1: NRC3_wobSeed28_DR1_T23A_o1 (dsDNA)
DNA 1: GCCCTACTGGGCCAAAGGTCATAGATTCCAATGCTCGCGATTGACAGCGTAGAATGAAGG
DNA 2: CCTTCATTCTACGCTGTCAATCGCGAGCATTGGAATCTATGACCTTTGGCCCAGTAGGGC
B2: NRC3_wobSeed4_DR0_G17C_o1 (dsDNA)
DNA 1: GCCCTACTGGGCCAAGCTCATTGATCAGTCAAAGCAGCGATTGACAGCGTAGAATGAAGG
DNA 2: CCTTCATTCTACGCTGTCAATCGCTGCTTTGACTGATCAATGAGCTTGGCCCAGTAGGGC
B3: NRC3_wobSeed10_DR0_A9C_o1 (dsDNA)
DNA 1: GCATCGAACGGTCGAGGTGAGTATAGAGAAAGGGAAGCGATTGACAGCGTAGAATGAAGG
DNA 2: CCTTCATTCTACGCTGTCAATCGCTTCCCTTTCTCTATACTCACCTCGACCGTTCGATGC
B4: NRC3_random_hg19_211_o1 (dsDNA)
DNA 1: GCATCACTATTCCCAACTTCAGGAGTAACCAGTATTGCGATTGACAGCGTAGAATGAAGG
DNA 2: CCTTCATTCTACGCTGTCAATCGCAATACTGGTTACTCCTGAAGTTGGGAATAGTGATGC
B5: NRC3_wobSeed65_DR2_T6C_o1 (dsDNA)
DNA 1: GCATACGTAGGTTATCGGGTCATTCAGTTTGCGCATGCGATTGACAGCGTAGAATGAAGG
DNA 2: CCTTCATTCTACGCTGTCAATCGCATGCGCAAACTGAATGACCCGATAACCTACGTATGC
B6: NRC3_random_hg19_164_o1 (dsDNA)
DNA 1: GCCATGAGGACCTGCAGCGCAATGACCTCCGAGGCAGCGATTGACAGCGTAGAATGAAGG
DNA 2: CCTTCATTCTACGCTGTCAATCGCTGCCTCGGAGGTCATTGCGCTGCAGGTCCTCATGGC
B7: NRC3_wobSeed90_DR3_G9C_o1 (dsDNA)
DNA 1: GCCATACACGGTCAGCTAGGCCAGAGTAGGGACGGCGCGATTGACAGCGTAGAATGAAGG
DNA 2: CCTTCATTCTACGCTGTCAATCGCGCCGTCCCTACTCTGGCCTAGCTGACCGTGTATGGC
B8: NRC3_wobSeed40_DR1_A21T_o1 (dsDNA)
DNA 1: GCTAGCCTAGGTCATGGGCCTGTATACCACGCGAACGCGATTGACAGCGTAGAATGAAGG
DNA 2: CCTTCATTCTACGCTGTCAATCGCGTTCGCGTGGTATACAGGCCCATGACCTAGGCTAGC
B9: NRC3_random_hg19_85_o1 (dsDNA)
DNA 1: GCTGGCTGGCACCTGTGTTCCAACAACTTGAGAGAGGCGATTGACAGCGTAGAATGAAGG
DNA 2: CCTTCATTCTACGCTGTCAATCGCCTCTCTCAAGTTGTTGGAACACAGGTGCCAGCCAGC
B10: NRC3_wobSeed32_DR1_G18C_o1 (dsDNA)
DNA 1: GCTCTTGTAGATCAAAGCTTAAGAAAGCCGAAGCCTGCGATTGACAGCGTAGAATGAAGG
DNA 2: CCTTCATTCTACGCTGTCAATCGCAGGCTTCGGCTTTCTTAAGCTTTGATCTACAAGAGC
B11: NRC3_wobSeed63_DR2_G11C_o1 (dsDNA)
DNA 1: GCCGAACTAGCTCACCAGGACAGTGAAGAGGTTGGAGCGATTGACAGCGTAGAATGAAGG
DNA 2: CCTTCATTCTACGCTGTCAATCGCTCCAACCTCTTCACTGTCCTGGTGAGCTAGTTCGGC
B12: NRC3_random_hg19_493_o1 (dsDNA)
DNA 1: GCGCCTAGCAGTCTATACAATTCTGAAGGATGCACCGCGATTGACAGCGTAGAATGAAGG
DNA 2: CCTTCATTCTACGCTGTCAATCGCGGTGCATCCTTCAGAATTGTATAGACTGCTAGGCGC
B13: NRC3_wobSeed76_DR3_A18C_o1 (dsDNA)
DNA 1: GCCCTACTGGGCCAAAACGGTCATTGATGCCGATAAGCGATTGACAGCGTAGAATGAAGG
DNA 2: CCTTCATTCTACGCTGTCAATCGCTTATCGGCATCAATGACCGTTTTGGCCCAGTAGGGC
B14: NRC3_wobSeed85_DR3_A28C_o1 (dsDNA)
DNA 1: GCCGTCCAAGGTCAGAGAGGTCAGTGACTGCCGAGTGCGATTGACAGCGTAGAATGAAGG
DNA 2: CCTTCATTCTACGCTGTCAATCGCACTCGGCAGTCACTGACCTCTCTGACCTTGGACGGC
B15: NRC3_wobSeed133_DR5_G22C_o1 (dsDNA)
DNA 1: GCCGTCCAAGGTCAATGCTAGCTCAGTGAAAGCATTGCGATTGACAGCGTAGAATGAAGG
DNA 2: CCTTCATTCTACGCTGTCAATCGCAATGCTTTCACTGAGCTAGCATTGACCTTGGACGGC
B16: NRC3_wobSeed64_DR2_C13G_o1 (dsDNA)
DNA 1: GCTAGCCTAGGTGATTGGGCCAGTATAGTACGCATCGCGATTGACAGCGTAGAATGAAGG
DNA 2: CCTTCATTCTACGCTGTCAATCGCGATGCGTACTATACTGGCCCAATCACCTAGGCTAGC
B17: NRC3_wobSeed13_DR0_G10C_o1 (dsDNA)
DNA 1: GCCGTCCAACGTCAAGGTCAGTGAAAGAGACTCGAAGCGATTGACAGCGTAGAATGAAGG
DNA 2: CCTTCATTCTACGCTGTCAATCGCTTCGAGTCTCTTTCACTGACCTTGACGTTGGACGGC
B18: NRC3_wobSeed33_DR1_A16T_o1 (dsDNA)
DNA 1: GCATCTCTAGGTAAATGTTCAGTGAATCCCGAGGATGCGATTGACAGCGTAGAATGAAGG
DNA 2: CCTTCATTCTACGCTGTCAATCGCATCCTCGGGATTCACTGAACATTTACCTAGAGATGC
B19: NRC3_random_hg19_481_o1 (dsDNA)
DNA 1: GCCCTTCTTAGTATCTGGGACAACAGGTGTGTGCTAGCGATTGACAGCGTAGAATGAAGG
DNA 2: CCTTCATTCTACGCTGTCAATCGCTAGCACACACCTGTTGTCCCAGATACTAAGAAGGGC
B20: NRC3_wobSeed41_DR1_T23G_o1 (dsDNA)
DNA 1: GCATATGTAGGTTAAGGGTCATGCAGGTTGGTTCGCGCGATTGACAGCGTAGAATGAAGG
DNA 2: CCTTCATTCTACGCTGTCAATCGCGCGAACCAACCTGCATGACCCTTAACCTACATATGC
B21: NRC3_wobSeed135_DR5_A14C_o1 (dsDNA)
DNA 1: GCCGAACTAGGTCCTTGACAGGACAGTGAATAGTAAGCGATTGACAGCGTAGAATGAAGG
DNA 2: CCTTCATTCTACGCTGTCAATCGCTTACTATTCACTGTCCTGTCAAGGACCTAGTTCGGC
B22: NRC3_wobSeed20_DR0_G4A_o1 (dsDNA)
DNA 1: GCAAAATGAGGTTAAGATCAGGGAAACAGAATACATGCGATTGACAGCGTAGAATGAAGG
DNA 2: CCTTCATTCTACGCTGTCAATCGCATGTATTCTGTTTCCCTGATCTTAACCTCATTTTGC
B23: NRC3_wobSeed72_DR2_G11C_o1 (dsDNA)
DNA 1: GCTCGAGTAGCTTACGGGGGCATTCAGGGATGAAGAGCGATTGACAGCGTAGAATGAAGG
DNA 2: CCTTCATTCTACGCTGTCAATCGCTCTTCATCCCTGAATGCCCCCGTAAGCTACTCGAGC
B24: NRC3_wobSeed36_DR1_C4G_o1 (dsDNA)
DNA 1: GCCGGACTGGGGCAAAGGTTACCATACTCAGTACGAGCGATTGACAGCGTAGAATGAAGG
DNA 2: CCTTCATTCTACGCTGTCAATCGCTCGTACTGAGTATGGTAACCTTTGCCCCAGTCCGGC
B25: NRC3_wobSeed38_DR1_T12A_o1 (dsDNA)
DNA 1: GCCCTGCTAGGACAATGGTCAGCTAAAGCAGCTCGCGCGATTGACAGCGTAGAATGAAGG
DNA 2: CCTTCATTCTACGCTGTCAATCGCGCGAGCTGCTTTAGCTGACCATTGTCCTAGCAGGGC
B26: NRC3_wobSeed61_DR2_C21G_o1 (dsDNA)
DNA 1: GCCGTCCAAGGTCAGCAGGTGAGTGAAAGCGACGTGGCGATTGACAGCGTAGAATGAAGG
DNA 2: CCTTCATTCTACGCTGTCAATCGCCACGTCGCTTTCACTCACCTGCTGACCTTGGACGGC
B27: NRC3_random_hg19_453_o1 (dsDNA)
DNA 1: GCATGATCATGGCTCACTGCAGCCTCGACCTCCAGAGCGATTGACAGCGTAGAATGAAGG
DNA 2: CCTTCATTCTACGCTGTCAATCGCTCTGGAGGTCGAGGCTGCAGTGAGCCATGATCATGC
B28: NRC3_wobSeed50_DR2_A22C_o1 (dsDNA)
DNA 1: GCCCTAGTTGGTCAGGAGGTCCCACACCGGATATGAGCGATTGACAGCGTAGAATGAAGG
DNA 2: CCTTCATTCTACGCTGTCAATCGCTCATATCCGGTGTGGGACCTCCTGACCAACTAGGGC
B29: NRC3_wobSeed125_DR5_A14G_o1 (dsDNA)
DNA 1: GCCCTTACGGGTCGCTGACAGGTTATAGCATTTGGAGCGATTGACAGCGTAGAATGAAGG
DNA 2: CCTTCATTCTACGCTGTCAATCGCTCCAAATGCTATAACCTGTCAGCGACCCGTAAGGGC
B30: NRC3_wobSeed125_DR5_G11T_o1 (dsDNA)
DNA 1: B29 DNA 1 with G11T, G14A
DNA 2: B29 DNA 2 with C47T, C50A
B31: NRC3_wobSeed119_DR4_A9G_o1 (dsDNA)
DNA 1: GCGGAACGGGGGCATTCGAGTTGATAGCATGGCGATGCGATTGACAGCGTAGAATGAAGG
DNA 2: CCTTCATTCTACGCTGTCAATCGCATCGCCATGCTATCAACTCGAATGCCCCCGTTCCGC
B32: NRC3_random_hg19_11_o1 (dsDNA)
DNA 1: GCTGAGTCAGAACCACCCAGCTAAGCCACCATCAAAGCGATTGACAGCGTAGAATGAAGG
DNA 2: CCTTCATTCTACGCTGTCAATCGCTTTGATGGTGGCTTAGCTGGGTGGTTCTGACTCAGC

Substitutions are numbered along the chain they refer to.

The target of the data set is PPARg:RXRa (Homo sapiens, UniProt P37231;P19793 full;full). Put plainly: no ligand; PBM; 180 nM : 90 nM RXRa; PBS pH 7.4, 2% milk, 0.02% Triton X-100, 1 mM DTT, BSA, 0.4 mg/ml salmon testes DNA. To be noted: tags: His kept;His cleaved; copies: 1;1; label: surface-attached array probe.
PPARg:RXRa, sequence (P37231 29-505, chain 1 of 2): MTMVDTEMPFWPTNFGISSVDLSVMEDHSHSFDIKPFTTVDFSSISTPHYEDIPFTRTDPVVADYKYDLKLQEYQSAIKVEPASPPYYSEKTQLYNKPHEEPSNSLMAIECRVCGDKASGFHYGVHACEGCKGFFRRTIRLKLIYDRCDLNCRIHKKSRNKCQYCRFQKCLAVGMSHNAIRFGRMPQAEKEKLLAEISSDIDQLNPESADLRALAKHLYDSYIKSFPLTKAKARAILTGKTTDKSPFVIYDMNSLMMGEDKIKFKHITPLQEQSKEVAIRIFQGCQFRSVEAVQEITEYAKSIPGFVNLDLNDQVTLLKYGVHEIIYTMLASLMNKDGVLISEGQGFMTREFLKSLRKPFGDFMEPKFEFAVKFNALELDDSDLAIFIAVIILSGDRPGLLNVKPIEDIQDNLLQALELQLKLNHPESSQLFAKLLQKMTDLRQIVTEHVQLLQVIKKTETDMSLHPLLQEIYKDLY
PPARg:RXRa, sequence (P19793 whole entry, chain 2 of 2): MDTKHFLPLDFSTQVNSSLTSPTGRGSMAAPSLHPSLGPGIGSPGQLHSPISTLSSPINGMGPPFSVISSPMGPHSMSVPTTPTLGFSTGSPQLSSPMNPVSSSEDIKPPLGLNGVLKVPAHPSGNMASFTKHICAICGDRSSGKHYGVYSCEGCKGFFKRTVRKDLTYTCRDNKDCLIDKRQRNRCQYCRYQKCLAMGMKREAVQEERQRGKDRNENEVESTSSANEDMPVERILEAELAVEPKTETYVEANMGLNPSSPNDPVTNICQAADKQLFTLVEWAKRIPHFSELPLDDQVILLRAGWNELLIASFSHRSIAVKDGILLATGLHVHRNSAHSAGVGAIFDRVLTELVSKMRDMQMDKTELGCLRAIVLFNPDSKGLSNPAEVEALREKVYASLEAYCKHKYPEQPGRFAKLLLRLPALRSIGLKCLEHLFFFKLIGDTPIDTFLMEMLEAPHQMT
For the molecule B1, the binding signal is 12.8 PBM z-score against 500 random probes.
Consider B2, for which the binding signal was 0.05 PBM z-score against 500 random probes.
As to B3, the binding signal was 0.48 PBM z-score against 500 random probes.
Take B4: the binding signal was 0.12 PBM z-score against 500 random probes.
Take B5: the binding signal is 3.06 PBM z-score against 500 random probes.
Next, B6: 0.42 PBM z-score against 500 random probes.
Next, B7: 0.49 PBM z-score against 500 random probes; B8: 3.23 PBM z-score against 500 random probes; B9: -0.09 PBM z-score against 500 random probes.
In the case of B10, the binding signal is -0.29 PBM z-score against 500 random probes.
On to B11, for which the binding signal is 0.17 PBM z-score against 500 random probes.
Turning to B12, the binding signal was 0.38 PBM z-score against 500 random probes.
Next, B13: 0.35 PBM z-score against 500 random probes; B14: 3.39 PBM z-score against 500 random probes; B15: 3.28 PBM z-score against 500 random probes.
On to B16, for which the binding signal was 0.42 PBM z-score against 500 random probes.
As for B17, the binding signal is 0.38 PBM z-score against 500 random probes.
Take B18: the binding signal was 0.4 PBM z-score against 500 random probes.
Next, B19: 0.31 PBM z-score against 500 random probes; B20: 12.4 PBM z-score against 500 random probes.
For B21, the binding signal is 0.43 PBM z-score against 500 random probes.
On to B22, for which the binding signal was 3.12 PBM z-score against 500 random probes.
Turning to B23, the binding signal is 0.35 PBM z-score against 500 random probes.
Regarding B24, the binding signal was 12.2 PBM z-score against 500 random probes.
Consider B25, for which the binding signal is 0.3 PBM z-score against 500 random probes.
For the molecule B26, the binding signal was 3.18 PBM z-score against 500 random probes.
As to B27, the binding signal was 0.09 PBM z-score against 500 random probes.
Next, B28: 0.46 PBM z-score against 500 random probes; B29: 0.49 PBM z-score against 500 random probes; B30: 0.49 PBM z-score against 500 random probes.
On to B31, for which the binding signal was 3 PBM z-score against 500 random probes.
On to B32, for which the binding signal was -0.05 PBM z-score against 500 random probes.
